The values that follow are results of earlier work, collected in article PMC9966187.

pKd: −log10 of the molar value.

As a reminder, the pKd is −log10 of the Kd, conventionally taken in molar units.

E-selectin (from UniProt P16581): the pKd was 4.80 with C-(IELFQAR) peptide and 4.46 in the data set with C-(IEELQAR) peptide.
